Changes are numbered by the printed parent chain.
Key:
[1] = target: T1, RccR S139A S139A (Pseudomonas aeruginosa PAO1) (UniProt Q9HTC8); test: EMSA; settings: EMSA: 10 nM FAM-DNA, 20 mM Tris-HCl pH 8.5, 150 mM KCl, 5 mM MgCl2, 1 mM EDTA, 1 mM DTT, 0.8% Tween 20, 2.5% glycerol, on ice 30 min; 6% native PAGE, 0.5x TBE
T1 sequence: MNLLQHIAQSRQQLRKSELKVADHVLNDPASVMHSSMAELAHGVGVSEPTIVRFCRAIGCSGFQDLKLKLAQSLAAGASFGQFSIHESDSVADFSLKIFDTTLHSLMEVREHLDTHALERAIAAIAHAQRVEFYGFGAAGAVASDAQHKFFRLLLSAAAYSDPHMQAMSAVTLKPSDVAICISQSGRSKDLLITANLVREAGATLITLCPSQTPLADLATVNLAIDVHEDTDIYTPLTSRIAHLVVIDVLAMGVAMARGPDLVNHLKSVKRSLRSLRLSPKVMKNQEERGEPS

[2] = target: T2, RccR WT (Pseudomonas aeruginosa PAO1) (UniProt Q9HTC8); test: EMSA; settings: EMSA: 10 nM FAM-DNA, 20 mM Tris-HCl pH 8.5, 150 mM KCl, 5 mM MgCl2, 1 mM EDTA, 1 mM DTT, 0.8% Tween 20, 2.5% glycerol, on ice 30 min; 6% native PAGE, 0.5x TBE
T2 sequence: T1 sequence with A139S

[3] = target: T3, RccR H164A H164A (Pseudomonas aeruginosa PAO1) (UniProt Q9HTC8); test: EMSA; settings: EMSA: 10 nM FAM-DNA, 20 mM Tris-HCl pH 8.5, 150 mM KCl, 5 mM MgCl2, 1 mM EDTA, 1 mM DTT, 0.8% Tween 20, 2.5% glycerol, on ice 30 min; 6% native PAGE, 0.5x TBE
T3 sequence: T1 sequence with A139S, H164A

[4] = target: T4, RccR H148A H148A (Pseudomonas aeruginosa PAO1) (UniProt Q9HTC8); test: EMSA; settings: EMSA: 10 nM FAM-DNA, 20 mM Tris-HCl pH 8.5, 150 mM KCl, 5 mM MgCl2, 1 mM EDTA, 1 mM DTT, 0.8% Tween 20, 2.5% glycerol, on ice 30 min; 6% native PAGE, 0.5x TBE
T4 sequence: T1 sequence with A139S, H148A

[5] = target: RccR (PA5438), RpiR family transcription factor of Pseudomonas aeruginosa PAO1 (Pseudomonas aeruginosa PAO1); test: crystal structure

“GGCTTGCTCCAGGGCGGAAAGGCTTCCAGAATCGGATGCCATAGGTGAGCGGCCGGCCTCGTGGGCGACCGCAGCTAATTCTTGGATGTTCTCCGGGGGTGTACCCGGCGACTTGTAGTTTTACTACAGATCAGTCTGAGAAACAGCCCTCTGGATACAATTTTTAGTAGTAAAACTACATTTCGATTGTCGCTGTCAGGCTATAAGGCCCGATGT (double strand) [aceE promoter]” was tested, and the binding [1] was “no binding”, the binding [2] was “binds” and the binding [3] was “no binding”. The binding [4] was “no binding”.

“RccR (PA5438), RpiR family transcription factor of Pseudomonas aeruginosa PAO1 (natural protein)” gave a stoichiometry N [5] of 4.

With “TGTTTGCCTCACTCTGCTCTAGACCAGCTCTGGACCCGGGCCGCACGGCCTTGTAGTCCGAGCCGCGGCATACTACATGATGCCGCGGGAAAAATCAGTGGTTACGCGTCGCGTTACGACTGGATGACGCTTCACGGTCACGTTGGCCAGGCTCAATGTTCGCAAAAAAACTGTACTTTGTTCCAGATAAATCTAAAAACAGTACACGATTTATCACGAGCCCA (double strand) [glcB promoter]” the binding [2] was “binds”.

Source: paper PMC10810197, “A KDPG sensor RccR governs Pseudomonas aeruginosa carbon metabolism and aminoglycoside antibiotic tolerance” (Nucleic Acids Research, 2023)
